According to the RNAGym collection of RNA variant scans (doi:10.1093/nar/gkz1192):

B1: CPEB3 Ribozyme (parent)
chain: UAACAGGGGGCCACAGCAGAAGCGUUCACGUCGCAGCCCCUGUCAGAUUCUGGUGAAUCUGCGAAUUCUGCUGUAUAUCUC

Variants of: B1
Assay: self-cleavage, relative activity (ratio to wild type); higher = more cleavage; in vitro, sequencing
Outline: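 Libraries of CPEB3 self-cleaving ribozyme mutants came from rounds of error-prone PCR and carried barcodes, which DNA sequencing matched to variants. In vitro transcription used T7 RNA polymerase at 37°C for 5 hours, with a further 15 min in DNase I before EDTA stopped the reaction; the ribozymes cleaved during both steps. The RNA was reverse transcribed with template switching and sequenced on Illumina. Relative activity is the cleaved/total read fraction of a variant divided by that of the unmutated ribozyme, averaged over three batches with at least 5 reads.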

Which self-cleavage does the source give for UAACAGGGGGCCACAGCAGAGGCGUUCACGUCGCAGCUCCUGUCAGAUUCUGGUGAAUCUGCGAAUUCUGCUGUAUAUCUC here?
The self-cleavage was 0.57.

With UAACAGGGGGCCACAGCAGAGGCGUUCACGUCGCAGCACCUGUCAGAUUCUGGUGAAUCUGCGAAUUCUGCUGUAUAUCUC as the variant, how does the self-cleavage read?
The self-cleavage was 0.33.

Which self-cleavage does the source give for UAACAGGGGGCCACAGCAGAGGCGUUCACGUCGCAGCCCCUGUCAGAUUCUGGUGAAUCUGCGAAUUCUGCUGUAUAUCUU here?
The self-cleavage was 0.92.

With UAACAGGGGGCCACAGCAGAGGCGUUCACGUCGCAGCCCCUGUCAAAUUCUGGUGAAUCUGCGAAUUCUGCUGUAUAUCUC as the variant, how does the self-cleavage read?
The self-cleavage was 0.42.

For UAACAGGGGGCCACAGCAGAGGCGUUCACGUCGCAGCCCCUGUCAUAUUCUGGUGAAUCUGCGAAUUCUGCUGUAUAUCUC, which self-cleavage is on record?
The self-cleavage was 0.36.

For UAACAGGGGGCCACAGCAGAGGCGUUCACGUCGCAGCCCCUGUCACAUUCUGGUGAAUCUGCGAAUUCUGCUGUAUAUCUC, which self-cleavage is on record?
Its self-cleavage is 0.18.

With UAACAGGGGGCCACAGCAGAGGCGUUCACGUCGCAGCCCCUGUCAGAUUCUGGUGAAUCUGCGAAUUCUGCUGUAUAUUUC as the variant, how does the self-cleavage read?
Its self-cleavage is 0.76.

For UAACAGGGGGCCACAGCAGAGGCUUUCACGUCGCAGCCCCUGUCAGAUUCUGGUGAAUCUGCGAAUUCUGCUGUAUAUCUC, which self-cleavage is on record?
The self-cleavage was 0.44.

For UAACAGGGGGCCACAGCAGAGGCCUUCACGUCGCAGCCCCUGUCAGAUUCUGGUGAAUCUGCGAAUUCUGCUGUAUAUCUC, which self-cleavage is on record?
Its self-cleavage is 0.23.

For UAACAGGGGGCCACAGCAGAGGCAUUCACGUCGCAGCCCCUGUCAGAUUCUGGUGAAUCUGCGAAUUCUGCUGUAUAUCUC, which self-cleavage is on record?
Its self-cleavage is 0.24.

Which self-cleavage does the source give for UAACAGGGGGCCACAGCAGAGGCGUUCACGUCGCAGCCCCUGUCAGAUUAUGGUGAAUCUGCGAAUUCUGCUGUAUAUCUC here?
Its self-cleavage is 0.57.

With UAACAGGGGGCCACAGCAGAGGCGUUCACGUCGCAGCCCCUGUCAGAUUUUGGUGAAUCUGCGAAUUCUGCUGUAUAUCUC as the variant, how does the self-cleavage read?
Its self-cleavage is 0.62.

With UAACAGGGGGCCACAGCAGAGGCGUUCACGUCGCAGCCCCUGUCAGAUUCUGGUGAAUCUGCUAAUUCUGCUGUAUAUCUC as the variant, how does the self-cleavage read?
The self-cleavage was 0.61.

With UAACAGGGGGCCACAGCAGAGGCGUUCACGUCGCAGCCCCUGUCAGAUUCUGGUGAAUCUGCGAAUUCUGUUGUAUAUCUC as the variant, how does the self-cleavage read?
Its self-cleavage is 0.32.

For UAACAGGGGGCCACAGCAGAGGCGUUCACGUCGCAGCCCCUGUCAGAUUCUGGUGAAUCUGCGAAUUCUGAUGUAUAUCUC, which self-cleavage is on record?
The self-cleavage was 0.07.

For UAACAGGGGGCCACAGCAGAGGCGUUCACGUCGCAGCCCCUGUCAGAUUCUGAUGAAUCUGCGAAUUCUGCUGUAUAUCUC, which self-cleavage is on record?
Its self-cleavage is 0.58.

For UAACAGGGGGCCACAGCAGAGGCGUUCACGUCGCAGCCCCUGUCAGAUUCUGGUGAAUCUACGAAUUCUGCUGUAUAUCUC, which self-cleavage is on record?
Its self-cleavage is 0.2.

For UAACAGGGGGCCACAGCAGAGGCGUUCACGUCGCAGCCCCUGUCAGAUUCUGGUGAAUCUUCGAAUUCUGCUGUAUAUCUC, which self-cleavage is on record?
The self-cleavage was 0.34.

With UAACAGGGGGCCACAGCAGAGGCGUUCACGUCGCAGCCCCUGUCAGAUUCUGGUGAAUCUGCGAAUUCUACUGUAUAUCUC as the variant, how does the self-cleavage read?
The self-cleavage was 0.22.

For UAACAGGGGGCCACAGCAGAGGCGUUCACGUCGCACCCCCUGUCAGAUUCUGGUGAAUCUGCGAAUUCUGCUGUAUAUCUC, which self-cleavage is on record?
Its self-cleavage is 0.24.

With UAACAGGGGGCCACAGCAGAGGCGUUCACGUCGCAUCCCCUGUCAGAUUCUGGUGAAUCUGCGAAUUCUGCUGUAUAUCUC as the variant, how does the self-cleavage read?
Its self-cleavage is 0.07.

With UAACAGGGGGCCACAGCAGAGGCGUUCACGUCGCAGCCCCUGUCAGAUUCUGGUGAAUAUGCGAAUUCUGCUGUAUAUCUC as the variant, how does the self-cleavage read?
Its self-cleavage is 0.31.

Which self-cleavage does the source give for UAACAGGGGGCCACAGCAGAGGCGUUCACGUCGCAGCCCCUGUCAGAUUCUGGUGAAUUUGCGAAUUCUGCUGUAUAUCUC here?
The self-cleavage was 0.38.

With UAACAGGGGGCCACAGCAGAGGCGUUCACGUUGCAGCCCCUGUCAGAUUCUGGUGAAUCUGCGAAUUCUGCUGUAUAUCUC as the variant, how does the self-cleavage read?
Its self-cleavage is 0.22.

With UAACAGGGGGCCACAGCAGAGGCGUUCACGUAGCAGCCCCUGUCAGAUUCUGGUGAAUCUGCGAAUUCUGCUGUAUAUCUC as the variant, how does the self-cleavage read?
The self-cleavage was 0.23.

With UAACAGGGGGCCACAGCAGAGGCGUUCACGUGGCAGCCCCUGUCAGAUUCUGGUGAAUCUGCGAAUUCUGCUGUAUAUCUC as the variant, how does the self-cleavage read?
Its self-cleavage is 0.23.

With UAACAGGGGGCCACAGCAGAGGAGUUCACGUCGCAGCCCCUGUCAGAUUCUGGUGAAUCUGCGAAUUCUGCUGUAUAUCUC as the variant, how does the self-cleavage read?
The self-cleavage was 0.32.

With UAACAGGGGGCCACAGCAGAGGGGUUCACGUCGCAGCCCCUGUCAGAUUCUGGUGAAUCUGCGAAUUCUGCUGUAUAUCUC as the variant, how does the self-cleavage read?
Its self-cleavage is 0.37.

With UAACAGGGGGCCACAGCAGAGGUGUUCACGUCGCAGCCCCUGUCAGAUUCUGGUGAAUCUGCGAAUUCUGCUGUAUAUCUC as the variant, how does the self-cleavage read?
The self-cleavage was 0.2.

For UAACAGGGGGCCACAGCAGAGGCGUUCACGUCGCAGCCCUUGUCAGAUUCUGGUGAAUCUGCGAAUUCUGCUGUAUAUCUC, which self-cleavage is on record?
Its self-cleavage is 0.46.

With UAACAGGGGGCCACAGCAGAGGCGUUCACGUCGCAGCCCAUGUCAGAUUCUGGUGAAUCUGCGAAUUCUGCUGUAUAUCUC as the variant, how does the self-cleavage read?
Its self-cleavage is 0.26.

For UAACAGGGGGCCACAGCAGAGGCGUUCACUUCGCAGCCCCUGUCAGAUUCUGGUGAAUCUGCGAAUUCUGCUGUAUAUCUC, which self-cleavage is on record?
Its self-cleavage is 0.21.

For UAACAGGGGGCCACAGCAGAGGCGUUCACCUCGCAGCCCCUGUCAGAUUCUGGUGAAUCUGCGAAUUCUGCUGUAUAUCUC, which self-cleavage is on record?
The self-cleavage was 0.15.

Which self-cleavage does the source give for UAACAGGGGGCCACAGCAGAGGCGUUCACAUCGCAGCCCCUGUCAGAUUCUGGUGAAUCUGCGAAUUCUGCUGUAUAUCUC here?
The self-cleavage was 0.32.
